Tested on: Escherichia coli TOP10
Assay: shrunken log2 fold change of peptide-encoding DNA abundance (4.5 h post-induction vs induction); higher = less antimicrobial activity (less host growth inhibition)
Settings: time post-induction: 4.5 h; library: site-saturation at positions 5, 18, 19, 20
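Also: peptides expressed intracellularly from a pBAD plasmid library in pooled LB shake-flask culture, induced with 0.3% L-arabinose, DNA abundance read by NGS, three biological replicates, DESeq2 with apeglm shrinkage.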

| Sequence | shrunken log2 fold change |
| --- | --- |
| RRIRVRPPRLPRPRPRPNDPPRP | -0.0659 |
| RRIRVRPPRLPRPRPRPNDTPRP | -0.228 |
| RRIRVRPPRLPRPRPRPNFYPRP | -0.146 |
| RRIRVRPPRLPRPRPRPNHKPRP | -0.292 |
| RRIRVRPPRLPRPRPRPNKFPRP | -0.255 |
| RRIRVRPPRLPRPRPRPNMDPRP | -0.506 |
| RRIRVRPPRLPRPRPRPNMWPRP | -0.327 |
| RRIRVRPPRLPRPRPRPNPKPRP | -0.0645 |
| RRIRVRPPRLPRPRPRPNQDPRP | -0.116 |
| RRIRVRPPRLPRPRPRPNRRPRP | -0.0977 |
| RRIRVRPPRLPRPRPRPNSVPRP | -0.00107 |
| RRIRVRPPRLPRPRPRPNTMPRP | -0.293 |
| RRIRVRPPRLPRPRPRPNVCPRP | -0.111 |
| RRIRVRPPRLPRPRPRPNVEPRP | -0.0461 |
| RRIRVRPPRLPRPRPRPNVTPRP | -0.554 |
| RRIRVRPPRLPRPRPRPNWHPRP | -0.0428 |
| RRIRVRPPRLPRPRPRPNWNPRP | -0.318 |
| RRIRVRPPRLPRPRPRPNYEPRP | -0.0505 |
| RRIRVRPPRLPRPRPRPPAAPRP | 0.397 |
| RRIRVRPPRLPRPRPRPPAIPRP | 0.376 |
| RRIRVRPPRLPRPRPRPPGRPRP | 0.593 |
| RRIRVRPPRLPRPRPRPPGWPRP | 0.718 |

| Sequence | shrunken log2 fold change |
| --- | --- |
| RRIRVRPPRLPRPRPRPPHAPRP | 0.351 |
| RRIRVRPPRLPRPRPRPPHSPRP | 0.108 |
| RRIRVRPPRLPRPRPRPPKLPRP | 0.0622 |
| RRIRVRPPRLPRPRPRPPNTPRP | -0.0576 |
| RRIRVRPPRLPRPRPRPPPDPRP | 0.834 |
| RRIRVRPPRLPRPRPRPPPQPRP | 0.856 |
| RRIRVRPPRLPRPRPRPPQMPRP | 0.236 |
| RRIRVRPPRLPRPRPRPPSKPRP | 1.13 |
| RRIRVRPPRLPRPRPRPPTMPRP | 0.0704 |
| RRIRVRPPRLPRPRPRPPTWPRP | 0.0832 |
| RRIRVRPPRLPRPRPRPPVGPRP | 0.375 |
| RRIRVRPPRLPRPRPRPPWAPRP | 0.537 |
| RRIRVRPPRLPRPRPRPPWDPRP | 0.445 |
| RRIRVRPPRLPRPRPRPPWGPRP | 0.0932 |
| RRIRVRPPRLPRPRPRPQCCPRP | -0.185 |
| RRIRVRPPRLPRPRPRPQCVPRP | -0.218 |
| RRIRVRPPRLPRPRPRPQDMPRP | -0.736 |
| RRIRVRPPRLPRPRPRPQEMPRP | 0.0818 |
| RRIRVRPPRLPRPRPRPQGQPRP | 0.00581 |
| RRIRVRPPRLPRPRPRPQGVPRP | -0.275 |
| RRIRVRPPRLPRPRPRPQINPRP | -0.0064 |
| RRIRVRPPRLPRPRPRPQISPRP | -0.0989 |

| Sequence | shrunken log2 fold change |
| --- | --- |
| RRIRVRPPRLPRPRPRPQLYPRP | -0.137 |
| RRIRVRPPRLPRPRPRPQMAPRP | -0.302 |
| RRIRVRPPRLPRPRPRPQPSPRP | 0.00981 |
| RRIRVRPPRLPRPRPRPQQEPRP | 0.0458 |
| RRIRVRPPRLPRPRPRPQQWPRP | 0.0185 |
| RRIRVRPPRLPRPRPRPQRTPRP | -0.0863 |
| RRIRVRPPRLPRPRPRPQSSPRP | -0.0172 |
| RRIRVRPPRLPRPRPRPQTNPRP | -0.0562 |
| RRIRVRPPRLPRPRPRPQTPPRP | 0.546 |
| RRIRVRPPRLPRPRPRPQVEPRP | -0.272 |
| RRIRVRPPRLPRPRPRPQVNPRP | -0.795 |
| RRIRVRPPRLPRPRPRPQVPPRP | -0.205 |
| RRIRVRPPRLPRPRPRPQWLPRP | 0.188 |
| RRIRVRPPRLPRPRPRPQWSPRP | -0.201 |
| RRIRVRPPRLPRPRPRPQYYPRP | -0.238 |
| RRIRVRPPRLPRPRPRPRCFPRP | 0.05 |
| RRIRVRPPRLPRPRPRPRCLPRP | -0.16 |
| RRIRVRPPRLPRPRPRPRCTPRP | 0.0149 |
| RRIRVRPPRLPRPRPRPREEPRP | 0.493 |
| RRIRVRPPRLPRPRPRPRELPRP | -0.0137 |
| RRIRVRPPRLPRPRPRPRFNPRP | -0.264 |
| RRIRVRPPRLPRPRPRPRFQPRP | 0.129 |

| Sequence | shrunken log2 fold change |
| --- | --- |
| RRIRVRPPRLPRPRPRPRGLPRP | 0.307 |
| RRIRVRPPRLPRPRPRPRHDPRP | 0.129 |
| RRIRVRPPRLPRPRPRPRHHPRP | -0.0962 |
| RRIRVRPPRLPRPRPRPRHPPRP | 0.278 |
| RRIRVRPPRLPRPRPRPRLWPRP | 0.45 |
| RRIRVRPPRLPRPRPRPRNLPRP | 0.107 |
| RRIRVRPPRLPRPRPRPRNPPRP | 0.148 |
| RRIRVRPPRLPRPRPRPRNWPRP | 0.4 |
| RRIRVRPPRLPRPRPRPRPFPRP | 0.351 |
| RRIRVRPPRLPRPRPRPRPKPRP | 0.521 |
| RRIRVRPPRLPRPRPRPRQCPRP | 0.33 |
| RRIRVRPPRLPRPRPRPRQEPRP | -0.0401 |
| RRIRVRPPRLPRPRPRPRQHPRP | 0.174 |
| RRIRVRPPRLPRPRPRPRSHPRP | 0.0021 |
| RRIRVRPPRLPRPRPRPRWCPRP | 0.295 |
| RRIRVRPPRLPRPRPRPRYEPRP | -0.273 |
| RRIRVRPPRLPRPRPRPRYIPRP | -0.458 |
| RRIRVRPPRLPRPRPRPSESPRP | 0.0556 |
| RRIRVRPPRLPRPRPRPSFCPRP | 0.212 |
| RRIRVRPPRLPRPRPRPSHTPRP | -0.0229 |
| RRIRVRPPRLPRPRPRPSINPRP | -0.243 |
| RRIRVRPPRLPRPRPRPSIWPRP | -0.205 |

| Sequence | shrunken log2 fold change |
| --- | --- |
| RRIRVRPPRLPRPRPRPSMFPRP | -0.245 |
| RRIRVRPPRLPRPRPRPSQKPRP | -0.0127 |
| RRIRVRPPRLPRPRPRPSRSPRP | 0.0405 |
| RRIRVRPPRLPRPRPRPSTGPRP | -0.00698 |
| RRIRVRPPRLPRPRPRPSVEPRP | -0.0446 |
| RRIRVRPPRLPRPRPRPSVGPRP | -0.659 |
| RRIRVRPPRLPRPRPRPSVIPRP | -0.239 |
| RRIRVRPPRLPRPRPRPSVSPRP | -0.488 |
| RRIRVRPPRLPRPRPRPSWSPRP | 0.0478 |
| RRIRVRPPRLPRPRPRPSWTPRP | -0.0613 |
| RRIRVRPPRLPRPRPRPSYFPRP | -0.131 |
| RRIRVRPPRLPRPRPRPTAFPRP | 0.0786 |
| RRIRVRPPRLPRPRPRPTDLPRP | -0.101 |
| RRIRVRPPRLPRPRPRPTDVPRP | 0.0418 |
| RRIRVRPPRLPRPRPRPTFQPRP | -0.0952 |
| RRIRVRPPRLPRPRPRPTFTPRP | -0.073 |
| RRIRVRPPRLPRPRPRPTFVPRP | 0.0147 |
| RRIRVRPPRLPRPRPRPTKHPRP | -0.135 |
| RRIRVRPPRLPRPRPRPTKTPRP | 0.0337 |
| RRIRVRPPRLPRPRPRPTLRPRP | 0.102 |
| RRIRVRPPRLPRPRPRPTLSPRP | -0.0525 |
